Laboratory results from patent US20050043236A1 (published 2005).
Like-named read-outs stand apart in the source and are kept apart here.

Columns and labels:
human VEGF165 [1] = molecular target: T1, human VEGF165 (human, UniProt P15692-4 27-191); assay: affinity determination for human VEGF-165 (method not named in Example 7)
T1 construct: also called hVEGF165

human VEGF165 [2] = molecular target: T1, human VEGF165; assay: affinity determination for human VEGF-165 (method not named in Example 7); second row for SEQ ID NO: 26
human VEGF165 [3] = molecular target: T1, human VEGF165; assay: kinetic dissociation from hVEGF165, as described in WO/0075319
human VEGF165 [4] = molecular target: T1, human VEGF165; assay: half-life of dissociation of the trap-hVEGF165 complex, as described in WO/0075319
human VEGF165 [5] = molecular target: T1, human VEGF165

T1 sequence (P15692 other isoform, or with tags, fused parts or gaps limits assumed): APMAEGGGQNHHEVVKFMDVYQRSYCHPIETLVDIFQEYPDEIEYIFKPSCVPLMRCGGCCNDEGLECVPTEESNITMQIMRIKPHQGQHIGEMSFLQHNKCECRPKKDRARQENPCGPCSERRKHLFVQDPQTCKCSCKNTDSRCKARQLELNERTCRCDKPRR

Kd (human VEGF165 [1])	koff (human VEGF165 [1])	kon (human VEGF165 [1])	Kd (human VEGF165 [2])	koff (human VEGF165 [2])	kon (human VEGF165 [2])	koff (human VEGF165 [3])	T1/2 (human VEGF165 [4])	Kd (human VEGF165 [5])	Binder
0.328 pM	6.56e-06 s⁻¹	2e+07 M⁻¹ s⁻¹	0.221 pM	5.77e-06 s⁻¹	2.61e+07 M⁻¹ s⁻¹	–	–	–	VEGF mini-trap of SEQ ID NO:26 (receptor, Secreted from CHO K1 cells; Covalent dimer of about 64 kDa) SDTGRPFVEMYSEIPEIIHMTEGRELVIPCRVTSPNITVTLKKFPLDTLIPDGKRIIWDSRKGFIISNATYKEIGLLTCEATVNGHLYKTNYLTHRQTNTIIDVVLSPSHGIELSVGEKLVLNCTARTELNVGIDFNWEYPSSKHQHKKLVNRDLKTQSGSEMKKFLSTLTIDGVTRSDQGLYTCAASSGLMTKKNSTFVRVHEKDKTHTCPPC
–	–	–	–	–	–	0.00674 s⁻¹	0.028 h	~1000 pM	recombinant monomeric R1R2-myc myc his (receptor, C-terminal myc-myc-his tag is not in the letters., Monomer; The construct is named only, not described; also called R1R2-myc myc his monomer; not shown: myc-myc-his tag and any linker to it) SDTGRPFVEMYSEIPEIIHMTEGRELVIPCRVTSPNITVTLKKFPLDTLIPDGKRIIWDSRKGFIISNATYKEIGLLTCEATVNGHLYKTNYLTHRQTNTIIDVVLSPSHGIELSVGEKLVLNCTARTELNVGIDFNWEYPSSKHQHKKLVNRDLKTQSGSEMKKFLSTLTIDGVTRSDQGLYTCAASSGLMTKKNSTFVRVHEK
–	–	–	–	–	–	5.46e-05 s⁻¹	3.53 h	–	cleaved VEGF mini-trap (receptor, Product of thrombin digestion of the uncleaved VEGF trap; also called thrombin-cleaved dimeric VEGF mini-trap; truncated trap) SDTGRPFVEMYSEIPEIIHMTEGRELVIPCRVTSPNITVTLKKFPLDTLIPDGKRIIWDSRKGFIISNATYKEIGLLTCEATVNGHLYKTNYLTHRQTNTIIDVVLSPSHGIELSVGEKLVLNCTARTELNVGIDFNWEYPSSKHQHKKLVNRDLKTQSGSEMKKFLSTLTIDGVTRSDQGLYTCAASSGLMTKKNSTFVRVHEKDKTHTCPPCLVPRGS
–	–	–	–	–	–	4.93e-05 s⁻¹	3.9 h	–	uncleaved VEGF trap containing a thrombin cleavage site (Fc fusion) SDTGRPFVEMYSEIPEIIHMTEGRELVIPCRVTSPNITVTLKKFPLDTLIPDGKRIIWDSRKGFIISNATYKEIGLLTCEATVNGHLYKTNYLTHRQTNTIIDVVLSPSHGIELSVGEKLVLNCTARTELNVGIDFNWEYPSSKHQHKKLVNRDLKTQSGSEMKKFLSTLTIDGVTRSDQGLYTCAASSGLMTKKNSTFVRVHEKDKTHTCPPCLVPRGSPAPELLGGPSVFLFPPKPKDTLMISRTPEVTCVVVDVSHEDPEVKFNWYVDGVEVHNAKTKPREEQYNSTYRVVSVLTVLHQDWLNGKEYKCKVSNKALPAPIEKTISKAKGQPREPQVYTLPPSRDELTKNQVSLTCLVKGFYPSDIAVEWESNGQPENNYKTTPPVLDSDGSFFLYSKLTVDKSRWQQGNVFSCSVMHEALHNHYTQKSLSLSPGK
